# Read-outs that look alike come from different tables or passages of the source. No end group written: not given here. *: point of attachment. FITC = O=C1OC2(c3ccc(O)cc3Oc3cc(O)ccc32)c2ccc(NC(=S)*)cc21
# T1: RARα ligand-binding domain (RAR LBD) (human, UniProt P10276-1 176-421)
# T1 sequence: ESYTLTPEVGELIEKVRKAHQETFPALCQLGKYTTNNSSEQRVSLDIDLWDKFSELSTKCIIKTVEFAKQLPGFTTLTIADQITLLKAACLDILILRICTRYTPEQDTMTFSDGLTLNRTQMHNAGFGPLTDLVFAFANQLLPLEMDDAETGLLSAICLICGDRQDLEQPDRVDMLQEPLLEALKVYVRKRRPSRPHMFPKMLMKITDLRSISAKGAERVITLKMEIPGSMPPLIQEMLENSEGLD
# Key:
# [1] = target: RXR/RAR LBD heterodimer (mouse RXRα LBD with human RARα LBD) (human | mouse) (UniProt P10276); test: fluorescence polarisation
# [2] = target: RXR/RAR LBD heterodimer (mouse RXRα LBD with human RARα LBD) (human | mouse) (UniProt P10276); test: fluorescence polarisation; remark: listed apart in the source
# [3] = target: T1, RARα ligand-binding domain (RAR LBD); test: fluorescence polarisation
# [4] = target: T1, RARα ligand-binding domain (RAR LBD); test: crystal structure
# [5] = target: T1, RARα ligand-binding domain (RAR LBD); test: crystal structure; remark: listed apart in the source
molecule,measurement,setting,value
"TIF2 nuclear receptor interaction domain (TIF2_(NRID)), residues 624-773, wild type (domain or fragment)",Kd,[1],1340 nM
same,fold decrease of Kd against the apo heterodimer,[1],9 fold
same,Kd,[2],200 nM
{FITC}-LTERHKILHRLLQEGSP [FITC-SRC1 NR2 peptide (FITC-LTERHKILHRLLQEGSP)],binding result,[3],binds
"KHKILHRLLQDSS [TIF2 NR2 peptide (KHKILHRLLQDSS), unlabelled]",binding result,[3],binds
"RHKILHRLLQEGS [SRC1 NR2 peptide (RHKILHRLLQEGS), unlabelled]",binding result,[3],binds
"KHKILHRLLQDSSSPVDLAKLTAEATGK [TIF2 NR2-Ext peptide (K686-K713), unlabelled]",binding result,[4],binds
RHKILHRLLQEGSPSDITTLSVEPDKK [SRC1 NR2-Ext peptide (RHKILHRLLQEGSPSDITTLSVEPDKK)],binding result,[5],binds
